The experiment concerns the target LSm7 (UniProt Q9UK45). Put plainly: two-hybrid.
Chain of UniProt Q9UK45 (Q9UK45 whole entry): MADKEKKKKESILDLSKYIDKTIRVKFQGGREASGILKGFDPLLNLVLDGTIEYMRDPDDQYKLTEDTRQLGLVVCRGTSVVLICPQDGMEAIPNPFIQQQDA

Substance “SART3/p110 with the CT10 domain deleted (from UniProt Q15020 1-950) (domain or fragment)” gave a fold reduction of the two-hybrid interaction against full-length SART3/p110 of 2 fold.
